This is an account of results in US20210054088A1 (Eli Lilly, published 2021).

One may read the EC50 as the concentration giving half of the maximal effect. Usually Kd stands for the free concentration of one partner at which half of the binding sites on the other are occupied at equilibrium, for simple one-to-one binding. Broadly, the koff is the rate constant with which the complex falls apart. For orientation: kon means the second-order rate constant of association.

Assay [1] has as its target T1, human CD137-ECD-C121S-Fc mutant G98K (human, UniProt Q07011 24-186).
T1 construct: not shown: Fc part
The assay is described as follows: point ELISA, coated CD137-Fc mutant; mean of absorbance normalised to wild type over eight concentrations. For orientation: ELISA stands for enzyme-linked immunosorbent assay.

For assay [2], the target named is T2, human CD137-ECD-C121S-Fc mutant A97P (human, UniProt Q07011 24-186).
T2 construct: not shown: Fc part
T2 sequence (Q07011 24-186 A97P/C121S): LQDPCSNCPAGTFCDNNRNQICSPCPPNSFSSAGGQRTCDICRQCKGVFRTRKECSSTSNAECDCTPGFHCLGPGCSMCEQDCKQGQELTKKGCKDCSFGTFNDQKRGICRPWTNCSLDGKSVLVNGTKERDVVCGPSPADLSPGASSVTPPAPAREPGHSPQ
Described as above.

The target in assay [3] is T3, human CD137-ECD-C121S-Fc mutant K114E (human, UniProt Q07011 24-186).
T3 construct: not shown: Fc part
T3 sequence (Q07011 24-186 K114E/C121S): as the sequence (Q07011 24-186 A97P/C121S) above, with P74A, K91E counted along it
Described as above.

Assay [4] deals with T4, human CD137-ECD-C121S-Fc mutant Q67R (human, UniProt Q07011 24-186).
T4 construct: not shown: Fc part
T4 sequence (Q07011 24-186 Q67R/C121S): as the sequence (Q07011 24-186 A97P/C121S) above, with Q44R, P74A counted along it
The description is as above.

Assay [5] deals with T5, human CD137-ECD-C121S-Fc mutant M101R (human, UniProt Q07011 24-186).
T5 construct: not shown: Fc part
T5 sequence (Q07011 24-186 M101R/C121S): as the sequence (Q07011 24-186 A97P/C121S) above, with P74A, M78R counted along it
The description is as above.

Assay [6] addresses T6, human CD137-ECD-C121S-Fc mutant Q67V (human, UniProt Q07011 24-186).
T6 construct: not shown: Fc part
The description is as above.

Assay [7] addresses T7, human CD137-ECD-C121S-Fc mutant P27L (human, UniProt Q07011 24-186).
T7 construct: not shown: Fc part
The assay is described as above.

For assay [8], the target named is T8, human CD137-ECD-C121S-Fc mutant K115Q (human, UniProt Q07011 24-186).
T8 construct: not shown: Fc part
T8 sequence (Q07011 24-186 K115Q/C121S): as the sequence (Q07011 24-186 A97P/C121S) above, with P74A, K92Q counted along it
The description is as above.

The target of assay [9] is T9, human CD137-ECD-C121S-Fc mutant S100T (human, UniProt Q07011 24-186).
T9 construct: not shown: Fc part
T9 sequence (Q07011 24-186 S100T/C121S): as the sequence (Q07011 24-186 A97P/C121S) above, with P74A, S77T counted along it
The description is as above.

Assay [10] addresses T10, human CD137-ECD-C121S-Fc mutant D63N (human, UniProt Q07011 24-186).
T10 construct: not shown: Fc part
The description is as above.

Assay [11] concerns the target T11, human CD137-ECD-C121S-Fc mutant G98Q (human, UniProt Q07011 24-186).
T11 construct: not shown: Fc part
The description is as above.

The target in assay [12] is T12, human CD137-ECD-C121S-Fc mutant Q104K (human, UniProt Q07011 24-186).
T12 construct: not shown: Fc part
T12 sequence (Q07011 24-186 Q104K/C121S): as the sequence (Q07011 24-186 A97P/C121S) above, with P74A, Q81K counted along it
The assay is described as above.

For assay [13], the target named is T13, hCD137** ((human CD137 amino acids 22-164, ΔC121S)-AAA-FLAG) (human, UniProt Q07011 22-164).
T13 construct: not shown: FLAG tag
T13 chain: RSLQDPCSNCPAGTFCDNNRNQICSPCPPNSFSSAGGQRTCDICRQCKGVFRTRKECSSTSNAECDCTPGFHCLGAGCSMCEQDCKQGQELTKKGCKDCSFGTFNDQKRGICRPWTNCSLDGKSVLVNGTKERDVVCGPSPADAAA
The assay is described as follows: ELISA, coated hCD137**, anti-Fab detection.

Assay [14] deals with human CD137 on stably transfected human 293 cells (human, UniProt Q07011 24-255). The assay is described as follows: cell-based or functional assay.
human CD137 on stably transfected human 293 cells, sequence (Q07011 24-255 limits assumed): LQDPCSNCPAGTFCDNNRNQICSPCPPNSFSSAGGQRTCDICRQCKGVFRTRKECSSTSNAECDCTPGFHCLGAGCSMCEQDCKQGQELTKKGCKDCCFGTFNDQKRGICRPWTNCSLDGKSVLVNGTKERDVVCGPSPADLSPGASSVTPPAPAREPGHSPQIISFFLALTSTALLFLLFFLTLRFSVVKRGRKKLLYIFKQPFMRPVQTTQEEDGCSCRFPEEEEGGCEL
For assay [15], the target named is T14, human CD137-ECD-C121S-Fc mutant N42S (human, UniProt Q07011 24-186).
T14 construct: not shown: Fc part
T14 sequence (Q07011 24-186 N42S/C121S): as the sequence (Q07011 24-186 A97P/C121S) above, with N19S, P74A counted along it
Kind of assay: point ELISA on coated CD137-Fc mutant; % of binding relative to wild-type hCD137.

For assay [16], the target named is T15, cynomolgus monkey CD137 on stably transfected human 293 cells (cynomolgus monkey, UniProt A9YYE7 24-254).
T15 construct: whole, on cells; also called Cyno-CD137
T15 sequence (A9YYE7 entry or part of it): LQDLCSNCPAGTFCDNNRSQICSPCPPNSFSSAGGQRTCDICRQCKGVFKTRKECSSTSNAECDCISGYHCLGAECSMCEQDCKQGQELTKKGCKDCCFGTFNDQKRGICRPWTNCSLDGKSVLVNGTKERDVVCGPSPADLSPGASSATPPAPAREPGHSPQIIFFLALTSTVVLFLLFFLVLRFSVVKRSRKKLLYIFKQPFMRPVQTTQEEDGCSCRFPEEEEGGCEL
Kind of assay: flow cytometry on 293 cells expressing cynomolgus monkey CD137, antibody at 0.5 micrograms/mL; MFI of antibody / MFI of control IgG.

Assay [17] has as its target T16, Recombinant human extracellular CD137-Fc protein (R&D Systems) (human, UniProt Q07011 24-186).
T16 construct: Bought protein; also called human CD137-Fc; not shown: Fc part of the bought fusion protein
The assay is described as follows: SPR (Biacore T200), CD137-Fc immobilised, 25° C., 1:1 Langmuir fit.

The target in assay [18] is T14, human CD137-ECD-C121S-Fc mutant N42S. The assay is described as follows: point ELISA, coated CD137-Fc mutant; mean of absorbance normalised to wild type over eight concentrations.
Another assay addresses T17, FcγRIIa(H) (UniProt P12318 36-218, limits assumed).
T17 sequence (looked up): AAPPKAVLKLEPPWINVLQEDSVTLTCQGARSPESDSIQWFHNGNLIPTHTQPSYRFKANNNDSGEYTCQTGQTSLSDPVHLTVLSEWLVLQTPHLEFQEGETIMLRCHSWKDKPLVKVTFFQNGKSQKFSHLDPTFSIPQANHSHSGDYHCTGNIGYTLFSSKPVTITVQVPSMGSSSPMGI
Kind of assay: MSD assay, Fcγ receptor coated.

A further assay concerns the target FcγRIIIa(V) (UniProt P08637 17-208, limits assumed). Kind of assay: MSD assay, Fcγ receptor coated.
The next assay concerns the target FcγRIIIa(F) (UniProt P08637 17-208, limits assumed). The assay is described as follows: MSD assay, Fcγ receptor coated.
The target of a further assay is FcγRI (UniProt P12314 16-288, limits assumed). Kind of assay: MSD assay, Fcγ receptor coated.
FcγRI, sequence (P12314 16-288 limits assumed): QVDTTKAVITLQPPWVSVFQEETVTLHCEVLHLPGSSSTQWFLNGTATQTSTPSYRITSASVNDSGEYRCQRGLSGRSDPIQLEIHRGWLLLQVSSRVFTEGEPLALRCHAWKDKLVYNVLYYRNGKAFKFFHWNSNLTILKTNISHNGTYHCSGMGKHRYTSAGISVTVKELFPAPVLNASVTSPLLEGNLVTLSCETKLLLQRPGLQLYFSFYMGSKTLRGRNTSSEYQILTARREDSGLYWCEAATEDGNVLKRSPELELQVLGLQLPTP
In another assay the target is T18, FcγRIIb (UniProt P31994 43-217, limits assumed).
T18 sequence (looked up): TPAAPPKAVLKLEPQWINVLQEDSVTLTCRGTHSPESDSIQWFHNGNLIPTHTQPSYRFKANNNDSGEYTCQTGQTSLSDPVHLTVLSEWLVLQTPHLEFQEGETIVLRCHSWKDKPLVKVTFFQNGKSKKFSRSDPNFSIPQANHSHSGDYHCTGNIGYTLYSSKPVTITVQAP
The assay is described as follows: MSD assay, Fcγ receptor coated.

Assay [19] deals with T19, human CD137-ECD-C121S-Fc mutant R130A (human, UniProt Q07011 24-186).
T19 construct: not shown: Fc part
T19 sequence (Q07011 24-186 C121S/R130A): as the sequence (Q07011 24-186 A97P/C121S) above, with P74A, R107A counted along it
Kind of assay: point ELISA, coated CD137-Fc mutant; mean of absorbance normalised to wild type over eight concentrations.

Assay [20] has as its target T20, human CD137-ECD-C121S-Fc mutant I132V (human, UniProt Q07011 24-186).
T20 construct: not shown: Fc part
The description is as above.

Assay [21] addresses T8, human CD137-ECD-C121S-Fc mutant K115Q. The description is as above. This is another data set of the same source.
Assay [22] deals with T21, human CD137-ECD-C121S-Fc mutant R130H (human, UniProt Q07011 24-186).
T21 construct: not shown: Fc part
T21 sequence (Q07011 24-186 C121S/R130H): as the sequence (Q07011 24-186 A97P/C121S) above, with P74A, R107H counted along it
Described as above.

Assay [23] has as its target T22, human CD137-ECD-C121S-Fc mutant R134Q (human, UniProt Q07011 24-186).
T22 construct: not shown: Fc part
The assay is described as above.

In the next assay the target is Human C1q (human, UniProt P02745 23-245; P02746 28-253; P02747 29-245). The assay is described as follows: ELISA, antibody coated, human C1q added.
Human C1q, sequence (P02745 23-245 limits assumed, chain 1 of 3): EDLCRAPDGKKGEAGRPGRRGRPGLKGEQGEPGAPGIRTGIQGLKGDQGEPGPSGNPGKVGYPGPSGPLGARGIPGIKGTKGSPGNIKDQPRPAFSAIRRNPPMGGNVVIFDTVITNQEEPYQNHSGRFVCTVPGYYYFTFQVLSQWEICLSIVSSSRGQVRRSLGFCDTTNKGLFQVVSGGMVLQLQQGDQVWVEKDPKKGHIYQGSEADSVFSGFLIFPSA
Human C1q, sequence (P02746 28-253 limits assumed, chain 2 of 3): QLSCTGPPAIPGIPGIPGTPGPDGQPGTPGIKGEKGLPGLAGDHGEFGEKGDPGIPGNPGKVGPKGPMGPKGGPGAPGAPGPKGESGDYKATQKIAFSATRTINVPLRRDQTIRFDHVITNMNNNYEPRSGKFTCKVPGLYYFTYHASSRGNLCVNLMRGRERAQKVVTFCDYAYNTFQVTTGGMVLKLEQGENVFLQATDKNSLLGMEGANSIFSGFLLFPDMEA
Human C1q, sequence (P02747 29-245 limits assumed, chain 3 of 3): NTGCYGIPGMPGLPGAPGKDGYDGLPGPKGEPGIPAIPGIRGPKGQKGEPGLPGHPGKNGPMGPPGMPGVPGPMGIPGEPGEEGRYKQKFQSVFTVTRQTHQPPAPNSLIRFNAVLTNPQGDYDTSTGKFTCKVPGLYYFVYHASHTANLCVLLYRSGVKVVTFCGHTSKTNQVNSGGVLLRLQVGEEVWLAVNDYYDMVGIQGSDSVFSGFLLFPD
In assay [24] the target is T16, Recombinant human extracellular …. Kind of assay: ELISA, coated human CD137-Fc.

Read-outs that look alike come from different tables or passages of the source.

T11 sequence (Q07011 24-186 G98Q/C121S): as the sequence (Q07011 24-186 A97P/C121S) above, with P74A, G75Q counted along it
T6 sequence (Q07011 24-186 Q67V/C121S): as the sequence (Q07011 24-186 A97P/C121S) above, with Q44V, P74A counted along it
T10 sequence (Q07011 24-186 D63N/C121S): as the sequence (Q07011 24-186 A97P/C121S) above, with D40N, P74A counted along it
T7 sequence (Q07011 24-186 P27L/C121S): as the sequence (Q07011 24-186 A97P/C121S) above, with P4L, P74A counted along it
T1 sequence (Q07011 24-186 G98K/C121S): as the sequence (Q07011 24-186 A97P/C121S) above, with P74A, G75K counted along it
FcγRIIIa(V), sequence (P08637 17-208 F176V limits assumed): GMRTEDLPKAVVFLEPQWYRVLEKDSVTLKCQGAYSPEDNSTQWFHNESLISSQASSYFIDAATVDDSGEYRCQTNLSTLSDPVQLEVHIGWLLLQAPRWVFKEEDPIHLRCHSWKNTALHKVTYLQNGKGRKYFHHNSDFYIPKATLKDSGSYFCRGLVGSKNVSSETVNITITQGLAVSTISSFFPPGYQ
T20 sequence (Q07011 24-186 C121S/I132V): as the sequence (Q07011 24-186 A97P/C121S) above, with P74A, I109V counted along it
T22 sequence (Q07011 24-186 C121S/R134Q): as the sequence (Q07011 24-186 A97P/C121S) above, with P74A, R111Q counted along it
FcγRIIIa(F), sequence (P08637 17-208 limits assumed): as the sequence (P08637 17-208 F176V limits assumed) above, with V160F counted along it

B1: BMS20H4.9 (antibody, human IgG4 S228P, kappa, V domains shown)
VH: QVQLQQWGAGLLKPSETLSLTCAVYGGSFSGYYWSWIRQSPEKGLEWIGEINHGGYVTYNPSLESRVTISVDTSKNQFSLKLSSVTAADTAVYYCARDYGPGNYDWYFDLWGRGTLVTVSS
VL: EIVLTQSPATLSLSPGERATLSCRASQSVSSYLAWYQQKPGQAPRLLIYDASNRATGIPARFSGSGSGTDFTLTISSLEPEDFAVYYCQQRSNWPPALTFGGGTKVEIKR
notes: Comparator anti-CD137 antibody, previously described in U.S. Pat. No. 7,288,638
Consider B1, for which the “% of binding relative to wild-type hCD137” value in [1], in assay [2], in [3], in assay [4], in assay [5] and in [6] was 100% each time. Also, the “% of binding relative to wild-type hCD137” value in assay [7] is 85%; in assay [8] it was 100%; in [9] it was 100%; in assay [10], 100%; in [11], 100%; in assay [12] it was 100%. Further, it took 0.43 nM to reach a half-maximal effect in assay [13] (EC50). Further, the “max activity, NF-kappaB luciferase reporter” value (shortened to “max activity”) in [14] came to 115%. Moreover, the binding result in assay [15] was “no binding”.

B2: PF83 (antibody, V domains shown)
VH: EVQLVQSGAEVKKPGESLRISCKGSGYSFSTYWISWVRQMPGKGLEWMGKIYPGDSYTNYSPSFQGQVTISADKSISTAYLQWSSLKASDTAMYYCARGYGIFDYWGQGTLVTVSS
VL: SYELTQPPSVSVSPGQTASITCSGDNIGDQYAHWYQQKPGQSPVLVIYQDKNRPSGIPERFSGSNSGNTATLTISGTQAMDEADYYCATYTGFGSLAVFGGGTKLTVLG
notes: Comparator anti-CD137 antibody, previously described in U.S. Pat. No. 8,337,850
In the case of B2, in assay [16], the MFI ratio is 37.

B3: Antibody A1 (antibody, human IgG1, kappa)
heavy: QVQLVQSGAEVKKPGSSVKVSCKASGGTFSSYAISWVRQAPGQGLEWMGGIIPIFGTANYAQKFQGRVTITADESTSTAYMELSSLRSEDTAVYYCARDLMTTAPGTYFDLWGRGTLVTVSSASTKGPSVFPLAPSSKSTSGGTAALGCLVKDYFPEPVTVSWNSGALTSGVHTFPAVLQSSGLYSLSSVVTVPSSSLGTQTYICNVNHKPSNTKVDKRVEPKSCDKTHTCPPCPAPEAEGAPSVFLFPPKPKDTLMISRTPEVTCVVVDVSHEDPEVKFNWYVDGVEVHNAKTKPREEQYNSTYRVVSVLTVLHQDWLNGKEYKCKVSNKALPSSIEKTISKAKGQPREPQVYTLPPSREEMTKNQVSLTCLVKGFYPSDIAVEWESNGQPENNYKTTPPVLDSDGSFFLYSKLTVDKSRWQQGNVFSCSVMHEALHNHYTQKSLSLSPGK
light: AIRMTQSPPSLSASVGDRVTITCQASQDIGNSLGWYQQKPGKAPKLVIFDASDLETGVPSRFSGSGSGTDFSLTISSLQPEDFATYYCQQGNSFPLTFGQGTRLEIKRTVAAPSVFIFPPSDEQLKSGTASVVCLLNNFYPREAKVQWKVDNALQSGNSQESVTEQDSKDSTYSLSSTLTLSKADYEKHKVYACEVTHQGLSSPVTKSFNRGEC
notes: Full length form; IgG1 Fc-null, kappa
With B3, in assay [17], the Kd came to 3.33 nM, the koff is 0.00536 s⁻¹ and the kon turned out to be 1.61e+06 M⁻¹ s⁻¹. Besides, the “max activity” value in assay [14] was found to be 63.4%.

B4: Antibody A2 (antibody, human IgG1, kappa)
heavy: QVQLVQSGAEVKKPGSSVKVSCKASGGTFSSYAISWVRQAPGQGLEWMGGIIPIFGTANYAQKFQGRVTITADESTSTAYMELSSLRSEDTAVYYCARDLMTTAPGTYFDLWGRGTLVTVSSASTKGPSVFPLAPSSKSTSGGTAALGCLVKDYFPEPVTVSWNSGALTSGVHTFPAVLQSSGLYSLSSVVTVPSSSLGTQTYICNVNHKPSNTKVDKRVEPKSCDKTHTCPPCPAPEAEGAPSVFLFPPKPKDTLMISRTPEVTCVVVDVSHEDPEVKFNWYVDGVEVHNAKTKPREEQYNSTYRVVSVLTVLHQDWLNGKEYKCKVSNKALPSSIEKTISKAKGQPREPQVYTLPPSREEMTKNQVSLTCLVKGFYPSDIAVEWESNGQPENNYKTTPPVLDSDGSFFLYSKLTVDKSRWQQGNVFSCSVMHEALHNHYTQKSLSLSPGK
light: IRMTQSPPSLSASVGDRVTITCQASQDIGNSLGWYQQKPGKAPKLVIFDASDLETGVPSRFSGSGSGTDFSLTISSLQPEDFATYYCQQGNSFPLTFGQGTRLEIKRTVAAPSVFIFPPSDEQLKSGTASVVCLLNNFYPREAKVQWKVDNALQSGNSQESVTEQDSKDSTYSLSSTLTLSKADYEKHKVYACEVTHQGLSSPVTKSFNRGEC
notes: Form lacking the N-terminal alanine of the light chain; IgG1 Fc-null, kappa
For B4, in assay [17], the Kd turned out to be 5.36 nM, the koff turned out to be 0.00713 s⁻¹ and the kon was 1.33e+06 M⁻¹ s⁻¹. Moreover, in [14], the “max activity” value turned out to be 72.3%.

B5: Antibody A1/2 (antibody, human IgG1, kappa)
heavy: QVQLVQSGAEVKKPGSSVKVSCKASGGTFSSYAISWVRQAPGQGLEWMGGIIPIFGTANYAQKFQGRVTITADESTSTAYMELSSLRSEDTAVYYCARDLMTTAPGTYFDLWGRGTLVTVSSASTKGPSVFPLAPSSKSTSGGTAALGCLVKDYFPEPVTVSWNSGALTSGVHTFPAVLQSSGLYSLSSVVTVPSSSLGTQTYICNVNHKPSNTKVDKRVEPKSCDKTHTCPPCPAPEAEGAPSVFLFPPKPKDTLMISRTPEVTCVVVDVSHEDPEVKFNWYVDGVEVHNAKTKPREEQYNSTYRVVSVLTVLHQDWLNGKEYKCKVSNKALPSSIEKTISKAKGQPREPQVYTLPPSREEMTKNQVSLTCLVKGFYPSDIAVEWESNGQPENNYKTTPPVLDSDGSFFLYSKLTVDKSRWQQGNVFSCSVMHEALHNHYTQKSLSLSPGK
light: B4 light
notes: Human IgG1 Fc-null, kappa; also called Antibody 1/2
B5: the “% of binding relative to wild-type hCD137” value in [1] was found to be 85%; in assay [2], 15%; in assay [3], 20%; in assay [4] it was 100%; in assay [18], 100%; in [5], 100%. The “% of binding relative to wild-type hCD137” value was determined as 100% in [6]; 100% in assay [7]; 25% in assay [8]; 100% in [9]; 100% in assay [10]; 100% in [11]. The “% of binding relative to wild-type hCD137” value was 100% in assay [12]; 100% in assay [19]; 100% in assay [20]; 25% in assay [21]; 100% in [22]; 100% in assay [23]. For the same molecule, the EC50 in assay [13] is 1.4 nM; in the assay with FcγRIIa(H), over 134 nM; with FcγRIIIa(V) it was over 134 nM; with FcγRIIIa(F) it was over 134 nM; with FcγRI it was over 5 nM; with FcγRIIb it was over 134 nM. Also, the EC50 with Human C1q is over 330 nM; in [24], 0.027 nM. The Kd in assay [17] stood at 4.67 nM. Moreover, the koff in assay [17] is 0.00711 s⁻¹. Further, the kon in [17] was found to be 1.52e+06 M⁻¹ s⁻¹. The MFI ratio in assay [16] is 153.
